Assay results as given in patent US20030031673A1 (published 2003).

Target: T1, prostate specific membrane antigen (human, UniProt Q04609 1-750)
T1 construct: whole, on cells; also called PSMA
Test: Western blot, prostatic (seminal) fluid
Experimental: To confirm that antibodies E99, J415, J533, and J591 precipitate an identical band to the 7Ell antibody (i.e., PSMA), Western Blot analyses were performed. Seminal plasma (400 μg/lane) or LNCaP lysate were loaded into lanes of 12% SDS-PAGE gels. After electrophoresis, the gels are transferred to nitrocellulose membranes. The membranes were blocked with 5% dry milk/Tris-buffered saline-tween 20 (“TBST”) for 60 min at room temperature. After washing, the membranes were incubated with primary mAb for 60 min at room temperature. After repeat washing, the membranes were incubated with sheep anti-mouse-Ig-peroxidase 1/5000 in 5% dry milk/TEST for 60 min at room temperature. After repeat washing, the membranes were developed using a chemiluminescent tag designated “ECL” (Amersham Life Sciences, International, Arlington Heights, Ill.) according to the manufacturer's directions.

T1 sequence (Q04609 whole entry): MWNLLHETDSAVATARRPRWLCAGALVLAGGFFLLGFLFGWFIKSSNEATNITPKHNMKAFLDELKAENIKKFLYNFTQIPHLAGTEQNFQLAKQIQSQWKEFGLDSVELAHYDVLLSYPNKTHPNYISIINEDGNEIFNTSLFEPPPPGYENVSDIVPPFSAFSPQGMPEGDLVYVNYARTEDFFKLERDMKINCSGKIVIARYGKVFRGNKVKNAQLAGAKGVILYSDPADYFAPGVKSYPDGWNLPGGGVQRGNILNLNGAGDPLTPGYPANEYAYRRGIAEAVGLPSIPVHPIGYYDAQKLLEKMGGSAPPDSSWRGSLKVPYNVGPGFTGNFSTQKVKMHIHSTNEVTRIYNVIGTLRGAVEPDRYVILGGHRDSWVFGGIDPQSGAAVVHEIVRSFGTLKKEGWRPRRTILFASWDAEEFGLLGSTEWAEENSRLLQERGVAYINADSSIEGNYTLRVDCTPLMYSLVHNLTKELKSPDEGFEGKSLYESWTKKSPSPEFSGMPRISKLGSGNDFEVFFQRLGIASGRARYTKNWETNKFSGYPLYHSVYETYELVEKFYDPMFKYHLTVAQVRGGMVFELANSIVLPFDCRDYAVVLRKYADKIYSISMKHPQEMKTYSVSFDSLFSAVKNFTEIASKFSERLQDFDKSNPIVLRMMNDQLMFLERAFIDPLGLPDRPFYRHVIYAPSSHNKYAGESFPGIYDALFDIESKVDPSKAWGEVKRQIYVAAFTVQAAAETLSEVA

B1: monoclonal antibody J591 (antibody, V domains shown)
VH: EVQLQQSGPELVKPGTSVRISCKTSGYTFTEYTIHWVKQSHGKSLEWIGNINPNNGGTTYNQKFEDKATLTVDKSSSTAYMELRSLTSEDSAVYYCAAGWNFDYWGQGTTLTVSS
VL: DIVMTQSHKFMSTSVGDRVSIICKASQDVGTAVDWYQQKPGQSPKLLIYWASTRHTGVPDRFTGSGSGTDFTLTITNVQSEDLADYFCQQYNSYPLTFGAGTMLDLK
notes: Gold-labeled in the electron microscopy; also called mAb J591; hybridoma ATCC HB-12126
- binding result: binds
